Reference: paper PMC3742469
Where “and” joins values, the source holds several entries; their conditions need not be identical. Equal values may be shown once. One block for each substance: values may come before it.

How the values were obtained:
[1] = molecular target: ATP synthase (complex V), human fibroblasts (human (endogenous in fibroblasts)) (UniProt P25705); experiment: native gel or EMSA; clear native electrophoresis (CNE), 6-15% gradient gels, of digitonin-solubilised (4 g/g protein) mitochondria of human fibroblasts (control and patients) and ρ0 cells; western blot, in-gel activity staining, 2D CNE/SDS PAGE
[2] = molecular target: CV lacking the mtDNA-coded subunits (ρ0 cells) (human (endogenous in 143B TK- ρ0 cells)) (UniProt P25705); experiment: as above
[3] = molecular target: respiratory chain complex IV, human fibroblasts (human (endogenous in fibroblasts)) (UniProt P13073); experiment: as above
[4] = molecular target: respiratory chain complex IV, rat heart (rat (endogenous in rat heart mitochondria)) (UniProt P10888); experiment: native gel or EMSA; clear native electrophoresis (CNE), 6-15% gradient gels, of digitonin-solubilised (4 g/g protein) rat heart mitochondria; western blot, in-gel activity staining, 2D CNE/SDS PAGE and CNE/CNECBG

stoichiometry N [1]: 2 and 4
Substance: ATP synthase (complex V), human fibroblasts (from UniProt P25705 44-553; P06576 48-529; P36542 26-298; P00846 1-226; P03928 1-68)

Substance: CV lacking the mtDNA-coded subunits (ρ0 cells) (from UniProt P25705 44-553; P06576 48-529; P36542 26-298) (complex)
stoichiometry N [2]: 2 and 4

stoichiometry N [3]: 2
Substance: respiratory chain complex IV, human fibroblasts (from UniProt P13073 23-169; P00395 1-513)

stoichiometry N [4]: 2
Substance: respiratory chain complex IV, rat heart (from UniProt P10888 23-169; P05503 1-514)
